How the values were obtained:
[1] = molecular target: Mycobacterium tuberculosis Biotin Protein Ligase (Mycobacterium tuberculosis) (UniProt I6YFP0)
[2] = molecular target: T1, Biotin Protein Ligase (MtBPL) (Mycobacterium tuberculosis, UniProt I6YFP0); assay: ITC (VP-ITC, […]°C); assay type: binding
T1 construct: gene birA; 266 amino acids, hexahistidine tag at N-terminus
T1 sequence (I6YFP0 whole entry, looked up): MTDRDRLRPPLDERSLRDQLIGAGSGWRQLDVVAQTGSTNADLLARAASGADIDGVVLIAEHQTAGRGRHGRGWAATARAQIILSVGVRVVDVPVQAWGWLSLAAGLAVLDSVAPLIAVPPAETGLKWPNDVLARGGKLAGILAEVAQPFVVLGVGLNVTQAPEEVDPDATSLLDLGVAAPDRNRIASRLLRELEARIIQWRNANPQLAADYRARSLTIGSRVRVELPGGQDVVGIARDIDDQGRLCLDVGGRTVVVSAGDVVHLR

Sequence of Mycobacterium tuberculosis Biotin Protein Ligase (Mycobacterium tuberculosis) (I6YFP0 whole entry): as the sequence (I6YFP0 whole entry, looked up) above

| Compound | Km for BCCP in the MtBPL catalysed incorporation of [14C]-biotin into BCCP (steady state kinetics, Michaelis-Menten fit) [1] | Kd [2] |
| --- | --- | --- |
| biotin carboxyl carrier protein (BCCP) domain of M. tuberculosis acetyl CoA carboxylase (domain or fragment) | 5.2 µM | – |
| Nc1ncnc2c1ncn2[C@@H]1O[C@H](COP(=O)(O)OC(=O)CCCC[C@@H]2SC[C@@H]3NC(=O)N[C@@H]32)[C@@H](O)[C@H]1O [bio-5′-AMP] | – | 1.36 µM |
